From article PMC9010301 come the findings set out here.

In the data set the target is Rad24-RFC clamp loader;9-1-1 clamp (Ddc1-Mec3-Rad17) (Saccharomyces cerevisiae;Saccharomyces …, UniProt P32641;P40348;P38629;P40339;P38251;Q08949;Q02574;P48581 …, |). The data set is described as follows: cryo-EM structure; closed 9-1-1 state; 0.5 mM ATPgS, 5 mM Mg acetate; 4 ATPgS and 1 ADP bound; 3.2 A; 1.8 uM Rad24-RFC, 2.2 uM 9-1-1, 2.7 uM DNA, 0.5 mM ATPgS, 5 mM Mg acetate; 9-1-1 + DNA 10 min at 30 C, then with loader on ice water 30 min (double-tailed) or 3.

B1: double-tailed DNA (3'- and 5'-recessed ends) (dsDNA)
DNA 1: GCAGACACTACGAGTACATA
DNA 2: TTTTTTTTTTTATGTACTCGTAGTGTCTGCTTTTTTTTTT
modifications: 5'-OH
On to B1, for which the binding result is listed as “binds”.
